{
  "source": "patent US6558660B2",
  "about": "“Method for regulating IL-10 with IL-9, and applications thereof” (Ludwig Institute for Cancer Research, priority 2000, dated 2003)",
  "molecules": {"B1": {"name": "IL-9: recombinant murine IL-9 produced in a baculovirus model in accordance with Druez, et al (protein, UniProt P15247 19-144, looked up)", "Interleukin-9": "QRCSTTWGIRDTNYLIENLKDDPPSKCSCSGNVTSCLCLSVPTDDCTTPCYREGLLQLTNATQKSRLLPVFHRVKRIVEVLKNITCPSFSCEKPCNQTMAGNTLSFLKSLLGTFQKTEMQRQKSRP"}, "B2": {"name": "IL-4: IL-4 (3 μg/mouse), together with 30 μg of anti-IL-4 monoclonal antibodies; composition improving bioavailability of IL-4 (protein, UniProt P07750 21-140, looked up)", "Interleukin-4": "HIHGCDKNHLREIIGILNEVTGEGTPCTEMDVPNVLTATKNTTESELVCRASKVLRIFYLKHGKTPCLKKNSSVLMELQRLFRAFRCLDSSISCTMNESKSTSLKDFLESLKSIMQMDYS", "modifications": "complexed with anti-IL-4 antibody"}},
  "key": {"[1]": {"tested_on": "P. aeruginosa (serotype 10)", "conditions": "cited from earlier work"}, "[2]": {"tested_on": "IL-4", "assay": "serum IL-4 by ELISA after challenge", "format": "in vivo, mice", "conditions": "IL-9 24 and 1 hour prior to challenge with bacteria or LPS; 2-24 hours after challenge", "experimental": "(§1) In view of the observations of Giampetri, et al, supra, serum levels of the anti-inflammatory cytokines IL-4 and IL- 10 were measured in the sera of mice that had been challenged, either with the whole bacteria or with LPS, as described supra, and had received IL-9 24 and 1 hour prior to challenge, as described supra. Levels were measured via ELISAs, 2, 4, 6, 8, and 24 hours after challenge."}, "[3]": {"tested_on": "IL-10", "assay": "serum IL-10 by ELISA after P. aeruginosa challenge", "format": "in vivo, mice", "conditions": "2 hours following Pseudomonas infection; IL-9 24 and 1 hour prior to challenge", "experimental": "as §1"}, "[4]": {"tested_on": "IL-10", "assay": "PCR of IL-10 transcripts in spleen cells of challenged mice", "format": "in vivo", "conditions": "after infection, animals which had received IL-9; control mice hardly detectable", "experimental": "The experiments described herein report analyses of expression of IL-10. Specifically, total RNA was isolated from spleen cells of challenged mice at different points in time (0.5, 1, 2, 4, and 8 hours). Isolation was carried out in accordance with Campanile, et al, Eur. J. Pharmacol. 307:191 (1996), and Houssiau, et al, J. Immunol. 154:2624 (1995), incorporated by reference. These references also describe the PCR protocols used for amplifying transcripts of β-actin (control), and IL-10. Commercially available primers were used to amplify β actin, and the 5′ and 3′ primers for IL-10 were, respectively: […]\nThe amplification product for β actin should be 540 base pairs in length, and that of IL-10, 256 base pairs. Products were analyzed via 1.5% agarose gel electrophoresis, and visualized by ethidium bromide staining."}, "[5]": {"assay": "LPS challenge (LD90), survival", "format": "in vivo, mice", "conditions": "850 μg LPS i.p.; IL-9 24 and 1 hour prior to challenge", "experimental": "(§2) In these experiments, mice were injected, intraperitoneally, with 850 μg of LPS, which had been determined previously to constitute an LD90. All animals received doses of IL-9 as described supra, 24 and 1 hour prior to challenge. Sera were analyzed 2, 4, 6, 8, and 24 hours following challenge, using either a standard bioassay for TNF-α (cytotoxicity to TNF-α sensitive WEH1 164 cells), or via an immunossay (IL-12p40 and IFN-γ)."}, "[6]": {"tested_on": "TNF-α", "assay": "serum TNF-α bioassay (cytotoxicity to WEH1 164 cells) after P. aeruginosa challenge", "format": "in vivo", "conditions": "P. aeruginosa treated mice; IL-9 24 and 1 hour prior to challenge", "text": "(§3) It has been observed, previously, that there is a strong association between development of fatal septic shock and production of TNF-α. See, e.g., the Campanile papers, cited supra. In addition, IL-12 and IFN-γ are pro-inflammatory cytokines thought to have a pathogenetic role in both septic shock and endotoxemia. See D'Andrea, et al, J. Exp. Med. 178:1041 (1993). Murphy, et al, J. Exp. Med. 180:223 (1994); Kubin, et al, J. Exp. Med. 180:211 (1994). In view of the results secured in examples 1 & 2, studies were undertaken to measure serum levels of TNF-α, IL-12 p40, and IFN-γ, in subject animals challenged with P. aeruginosa in the manner described supra, or lipopolysaccharide antigen (“LPS” hereafter), that were also treated with IL-9.\nas §2"}, "[7]": {"tested_on": "TNF-α", "assay": "serum TNF-α bioassay (cytotoxicity to WEH1 164 cells) after LPS challenge", "format": "in vivo, mice", "conditions": "LPS challenged animals (850 μg i.p.); IL-9 24 and 1 hour prior to challenge", "text": "as §3, §2"}, "[8]": {"tested_on": "IL-10", "assay": "serum IL-10 by ELISA after LPS challenge", "format": "in vivo", "conditions": "LPS challenged mice; IL-9 24 and 1 hour prior to challenge", "experimental": "as §1"}, "[9]": {"tested_on": "P. aeruginosa (serotype 10)", "assay": "live sepsis model, survival after lethal P. aeruginosa challenge", "format": "in vivo, mice", "experimental": "This model was used in these experiments. To elaborate, hybrid mice (BALB/c Cr×DBA/2Cr) F1 (CD2 F1) of both sexes, ranging in age from 2-4 months were used. Mice were injected, intravenously, with 10^10 cells of P. aeruginosa (serotype 10), as described by, e.g., Campanile, et al, Cell. Immunol. 128:250 (1990); Campanile, et al, Cell. Immunol. 147:341 (1993); Campanile, et al, Eur. J. Pharmacol. 307:191 (1996). The microorganism was cultured in tryptic soy broth using standard conditions, and incubated at 37° C. for 18-24 hours under constant aeration. After the overnight culturing, the microorganisms were centrifuged, forming a soft pellet which was then resuspended in phosphate buffered saline. The dose of microorganisms referred to supra was then administered. This inoculum size is known to be lethal in more than 90% of test animal populations.\nThe interleukins and PBS were all administered intraperitoneally. Pentoxifylline was also administered intraperitoneally.\nThe experiments described supra were repeated, using a variety of doses, and both prophylactic and post-challenge administration.\nTo test this, mice received pentoxifylline at a dose of 30 mg/kg of body weight 1 hour before challenge with bacteria. The animals received a dose of murine IL-9 (4 μg) three hours post infection."}, "[10]": {"tested_on": "TNF-α, IL-12 p40, and IFN-γ", "assay": "serum levels of TNF-α, IL-12 p40 and IFN-γ after challenge (bioassay / immunoassay)", "format": "in vivo, mice", "conditions": "IL-9 24 and 1 hour prior to challenge (P. aeruginosa or LPS); 2, 4 and 6 hours after challenge", "text": "as §3, §2"}},
  "data": [
    {"molecule": "CC(=O)CCCCn1c(=O)c2c(ncn2C)n(C)c1=O", "note": "[Pentoxifylline, reference compound]", "values": [
      {"measurement": "protection in experimental sepsis", "setting": "[1]; phosphodiesterase inhibitor, literature statement", "result": "confers protection"}
    ]},
    {"molecule": "B1", "values": [
      {"measurement": "effect on IL-4 production (serum level)", "setting": "[2]", "result": "did not appear to have any effect"},
      {"measurement": "increase of IL-10 levels (serum)", "setting": "[3]", "result": "striking"},
      {"measurement": "IL-10 specific transcripts in spleen", "setting": "[4]", "result": "extensive expression"},
      {"measurement": "outcome (survival) of LPS challenged mice", "setting": "[5]", "result": "death in the majority of the animals tested"},
      {"measurement": "drop in TNF-α levels", "setting": "[6]", "result": 10, "unit": "fold"},
      {"measurement": "drop in TNF-α levels", "setting": "[7]", "result": "better than a twofold drop"},
      {"measurement": "increase of IL-10 levels (serum)", "setting": "[8]", "result": "The same effect, albeit a lesser one"},
      {"measurement": "survival rate", "setting": "[9]; IL-9 i.p. prior to P. aeruginosa challenge, pooled independent experiments", "result": "about 80%"},
      {"measurement": "cure rate", "setting": "[9]; single 4 μg dose 24 hours before bacterial challenge, no second dose", "result": 50, "unit": "%"},
      {"measurement": "benefit (survival)", "setting": "[9]; single treatment of 4 μg near the time of infection, and as much as 3 hours post challenge", "result": "marginal benefit"},
      {"measurement": "expression of the cytokines (TNF-α, IL-12 p40, IFN-γ) in serum", "setting": "[10]", "result": "drastic reduction in all three cytokines"}
    ]},
    {"molecule": "B2", "values": [
      {"measurement": "protection against fatal sepsis", "setting": "[1]; IL-4 3 μg/mouse together with 30 μg anti-IL-4 monoclonal antibodies, i.p., before P. aeruginosa challenge", "result": 100, "unit": "%"}
    ]}
  ]
}
